Test results from patent publication US12428627B2, “Mutant p-hydroxyphenylpyruvate dioxygenase, and coding nucleic acid and use thereof” (Qingdao Kingagroot Chemical Compound Co., Ltd., priority 2018, dated 2025).

Tested on: OsHPPD
Assay: HPPD enzyme activity assay: Km, Kcat and Kcat/Km of OsHPPDs
Type: biochemical, Oryza sativa
Conditions: substrate 4-HPP
Description: The rice OsHPPD protein and homogentisate 1,2-dioxygenase (HGD) were obtained by heterologously expressed in E. coli wherein the gene was inserted into the pET 15b expression vector and expressed in the BL21 (DE3) expression strain, and purified by the Ni-NTA resin. • (1) The HPPD open reading frame (ORF) of the positive clone was cloned into the pET-15b vector to form a 6His-HPPD expression vector, and transformed into the BL21 (DE3) cell. The expression strain was inoculated in 10 mL of 2×YT culture medium, and cultivated overnight on a shaker at 37° C. and 200 rpm. The 10 mL of the culture was inoculated in 1 L of 2×YT culture medium and cultivated until the OD600 reached 0.6-0.8, cooled to a temperature of 16° C., and subjected to induced-expression with 0.2 mM IPTG (isopropyl thiogalactoside) overnight. The strains were collected by centrifugation at 2800×g. • (2) The collected strains were re-suspended with the buffer A (50 mM Tris pH 8.0, 500 mM NaCl, 20 mM imidazole), to which PMSF (phenylmethanesulfonyl fluoride) at the final concentration of 1 mM and 250 μL of a protease inhibitor cocktail (i.e., a mixture of multiple protease inhibitors), and mixed. The cells were broken by ultrasound in ice-bath (40% total power, work for 3 seconds/6 seconds interval, 2×30 minutes (Ningbo Scientz Biotechnology Co., Ltd., Ningbo, China)), and centrifuged at 12000 rpm at 4° C. for 30 minutes; and the supernatant was filtered with a 0.22 μm filter membrane. • (3) Purification with the Ni-NTA column: the supernatant was in contact with the Ni-NTA resin, then rinsed with a buffer A containing 50 mM imidazole to remove the impurities, and finally, eluted with an elution buffer containing 400 mM imidazole. • (4) The approximate purity of the protein of interest was analyzed by SDS-PAGE. The eluates containing of the protein of interest were combined and concentrated by an ultrafiltration device (10 kDa molecular weight cut-off, Amicon Ultra). The solution was replaced with a solution containing 20 mM Tris-HCl and having a pH of 7.5 for at least 3 times to desalt. The total protein concentration was determined by the BCA method.
• 1. The activity of a HPPD enzyme was determined by detecting the conversion of 4-hydroxyphenylpyruvate (4-HPP) to homogentisic acid (HGA) catalyzed by the HPPD enzyme and the conversion of HGA to maleylacetoacetate (MAA) catalyzed by homogentisate dioxygenase. […] 6 μl of 4-hydroxyphenylpyruvate (4-HPP) having a concentration that was as 50 times as the final concentration of the substrate were added to an ELSA plate, and then 294 μL of hydroxyethylpiperazine ethanesulfonic acid (HEPES) with a final concentration of 25 mM and pH of 7, 2 mM of Vitamin C, 10 mM FeSO4, 50 nM homogentisate dioxygenase and 5 to 240 nM HPPD enzyme were added thereto at one time. The final concentration of reaction substrate 4-HPP usually ranged from 1 to 100 μM. • 3. The absorbance changes of the reaction wells at 318 nm were continuously monitored by a UV ELISA detector (ReadMax 1900 photoabsorption type full-wavelength microplate reader) (Shanghai). • 4. Determination of Km, Kcat and Kcat/Km of OsHPPDs
Vmax is the maximum catalytic reaction rate achievable by enzymatic catalysis. The Michaelis constant Km is the concentration of a substrate required when the enzyme catalyzed the reaction to achieve half of the maximum rate (Vmax). The Km value is a constant and independent of the enzyme concentration, and altered as substrate type, reaction temperature, pH, and ionic strength changed. […] is a catalytic constant of an enzyme and referred to the number of substrate molecules that could be catalyzed by an enzyme molecule or enzyme active center per second. KCat/Km represents the catalytic efficiency of enzyme. It could be seen from the data in the table that the catalytic efficiency of most HPPD mutants was enhanced.

B1: H141R/G342D/D370N: three-site mutant rice HPPD (OsHPPD3M) (protein, listed as Oryza sativa)
chain: MPPTPTPTATTGAVSAAAAAGENAGFRLVGHRRFVRANPRSDRFQALAFHHVELWCADAASAAGRFAFALGAPLAARSDLSTGNSAHASLLLRSASVAFLFTAPYGGDHGVGADAATTASIPSFSPGAARRFAADHGLAVRAVALRVADAADAFRASVAAGARPAFQPADLGGGFGLAEVELYGDVVLRFVSHPDGADAPFLPGFEGVSNPGAVDYGLRRFDHVVGNVPELAPVAAYISGFTGFHEFAEFTAEDVGTAESGLNSVVLANNAETVLLPLNEPVHGTKRRSQIQTYLDHHGGPGVQHIALASDDVLGTLREMRARSAMGGFEFLAPPPPNYYDDVRRRAGDVLSEEQINECQELGVLVDRDNQGVLLQIFTKPVGDRPTFFLEMIQRIGCMEKDESGQEYQKGGCGGFGKGNFSELFKSIEEYEKSLEAKQAPTVQGS
modifications: The amino acid sequence of Wild-Type rice HPPD protein (OsHPPD _WT)
  Km: 10.9 µM
